Measurements: the supplement of paper PMC10567573

B1: MYBL2 (parent)
chain: IAKHLKGRLGKQCRERWHNHLNPE

Variants of: B1
Experiment: protein stability index of a GFP-peptide fusion (GPS, HEK-293T) (PSI 1-6); higher = more stable
Settings: c terminus: a fixed tail appended
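Note: lentivirally expressed fusions sorted by FACS into six bins by GFP to DsRed ratio, PSI derived from sequencing read proportions per bin multiplied by bin number.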

Protein stability index, by site and new letter:
R16: L 2.06 | F 2.19 | C 2.13 | D 2.08 | H 1.58 | E 2.58 | Y 2.41 | V 2 | I 1.54 | Q 2.12 | G 1.71 | W 4.03 | K 2.66 | P 1.96 | A 2.21 | T 2.13 | N 2 | S 1.85 | M 2.39
G10: N 2.52 | T 2.16 | C 1.74 | L 1.94 | V 2.54 | H 1.35 | W 2.56 | F 3.24 | K 1.61 | Y 2.49 | Q 1.96 | A 1.92 | I 2.44 | P 2.22 | R 1.67 | S 1.99 | D 1.83 | E 1.48
W17: A 2.35 | S 2.53 | H 2.69 | C 2.3 | V 2.08 | L 2.96 | K 2.94 | Q 2.71 | F 2.81 | P 3.13 | T 2.69 | I 2.14 | M 2.31 | N 2.8 | D 2.4 | Y 2.38 | G 2.52 | R 2.4 | E 3.22
H4: Y 4.85 | W 1.76
G7: M 1.77 | A 2.94 | E 1.88 | D 2.61 | H 3.17 | Y 2.14 | K 1.77 | C 1.6 | S 2.39 | L 2.71 | W 2.74 | V 2.45 | Q 1.65 | F 2.25 | I 2.31 | N 1.82 | R 2.2 | P 2.14 | T 2.25
K11: V 2.12 | S 2.43 | R 1.95 | L 2.36 | Y 2.02 | N 2.43 | W 2.44 | T 1.67 | I 1.97 | C 2.09 | A 2.06 | E 2.46 | Q 1.79 | P 1.75 | H 2.41 | M 2.69 | G 3.92 | D 2.47 | F 1.4
Q12: A 1.29 | N 1.38 | V 1.61 | M 1.92 | R 2.44 | S 2.77 | C 2.53 | I 2.97 | K 1.51 | P 1.54 | T 1.55 | F 2.08 | H 2.38 | G 3.02 | L 2.32 | Y 2.33 | D 1.93 | W 1.93 | E 1.92
N19: D 2.05 | G 2.8 | F 2.58 | W 2.24 | T 1.9 | A 1.41 | S 1.91 | Y 3.59 | E 2.24 | Q 2.02 | K 1.72 | P 1.02 | H 1.73 | V 2.05 | C 1.54 | L 2.63 | I 3.11 | R 2.31 | M 1.63
H20: N 2.1 | G 1.87 | P 2.41 | M 1.06 | C 2.44 | Q 1.84 | I 1.77 | D 1.96 | F 1.92 | R 1.21 | V 2.58 | K 2.18 | S 1.54 | L 2.42 | T 2.09 | A 1.69 | Y 1.62 | W 2.57 | E 2.35
R8: E 2.14 | V 1.6 | P 2.65 | K 2.11 | Y 1.9 | A 1.97 | W 2.73 | D 2.41 | I 1.53 | H 1.91 | G 1.81 | N 1.61 | Q 1.76 | S 1.8 | T 1.63 | C 2.23 | M 1.74
L9: W 1.67 | N 2.31 | V 2.18 | T 1.99 | Y 2.24 | M 2.45 | S 2.55 | K 2.5 | D 3.01 | C 2.08 | H 2 | P 2.28 | I 1.43 | A 1.76 | R 2.72 | Q 2.06 | E 2.73 | F 1.7 | G 2.45
C13: H 2.33 | E 2.68 | K 2.34 | L 1.87 | Q 1.96 | M 2.01 | N 3.21 | I 2.58 | D 2.57 | P 2.57 | W 2.19 | F 1.65 | S 2.14 | T 2.08 | G 2.54 | R 2.3 | Y 1.64 | A 2.55 | V 1.97
L21: I 2.29 | S 1.97 | C 1.69 | D 2.17 | P 2.97 | E 2.88 | K 2.79 | A 2.16 | G 1.98 | Y 1.85 | W 1.79 | R 2.34 | T 2.3 | Q 2.47 | N 2.22 | H 1.75 | F 1.91 | V 2.23 | M 1.47
L5: E 2.49 | D 2.7 | C 1.9 | N 2.38 | H 2.51 | P 2.07 | G 2.04 | M 1.72 | I 1.75 | K 2.49 | A 2.18 | Q 1.87 | V 2.18 | S 2.29 | R 2.7 | F 1.67 | Y 1.86 | T 2.35 | W 1.84
H18: I 2.73 | F 2.24 | L 1.55 | V 1.1 | C 1.8 | N 2.33 | Q 2.43 | R 1.56 | Y 1.67 | E 1.82 | S 1.47 | G 1.85 | P 1.9 | T 2.97 | K 2.87 | A 1.61 | D 1.85
K6: V 2.45 | N 2.21 | A 1.7 | T 2.21 | H 1.91 | P 2.03 | F 2.94 | C 2.59 | W 1.27 | M 1.97 | Q 1.56 | D 2.46 | R 1.67 | Y 1.77 | S 1.81 | E 1.55 | G 1.67 | L 4.25
E15: G 1.9 | R 1.96 | K 2.18 | I 1.96 | H 1.25 | Q 1.49 | W 3.6 | A 2.17 | S 1.23 | L 2.48 | F 2.26 | D 1.73 | M 3.02 | Y 2.12 | V 2.12 | C 2.38 | N 1.69 | P 1.63 | T 2.5
R14: Y 2.12 | G 2.03 | H 2.3 | M 1.29 | N 2.62 | E 2.59 | C 1.77 | V 1.74 | I 1.83 | D 2.56 | A 2 | P 2.64 | S 1.5 | W 1.82 | K 1.87 | T 2.61 | Q 2.52 | L 1.63 | F 1.47
N22: P 1.35 | A 1.73 | C 1.92 | I 2.09 | Q 2.05 | R 1.64 | G 1.43 | D 2.06 | L 2.24 | S 2.29 | E 2.42 | M 2.58 | K 1.51 | F 2.7 | H 1.91
